Target: the molecule itself
Experiment: SEC; LCAT alone on triple Superdex 200 Increase, run beside rHDL alone and the cross-linked mixture

B1: Lecithin:cholesterol acyltransferase (recombinant, expressed in CHO cells) (enzyme, human, UniProt P04180 25-440, looked up)
chain: FWLLNVLFPPHTTPKAELSNHTRPVILVPGCLGNQLEAKLDKPDVVNWMCYRKTEDFFTIWLDLNMFLPLGVDCWIDNTRVVYNRSSGLVSNAPGVQIRVPGFGKTYSVEYLDSSKLAGYLHTLVQNLVNNGYVRDETVRAAPYDWRLEPGQQEEYYRKLAGLVEEMHAAYGKPVFLIGHSLGCLHLLYFLLRQPQAWKDRFIDGFISLGAPWGGSIKPMLVLASGDNQGIPIMSSIKLKEEQRITTTSPWMFPSRMAWPEDHVFISTPSFNYTGRDFQRFFADLHFEEGWYMWLQSRDLLAGLPAPGVEVYCLYGVGLPTPRTYIYDHGFPYTDPVGVLYEDGDDTVATRSTELCGLWQGRQPQPVHLLPLHGIQHLNMVFSNLTLEHINAILLGAYRQGPPASPTASPEPPPPE
notes: Lecithin:cholesterol acyltransferase, human; cross-links to 'LCAT residue 1' (the N-terminus) are reported; Used for all non-cryoEM experiments (cross-linking, SEC, negative-stain EM, activity assays); also called LCAT; human LCAT; source: CHO cells, recombinant, gifted by Alan Remaley
binding result: binds

From publication PMC12049944, “Lecithin:cholesterol acyltransferase binds a discontinuous binding site on adjacent apolipoprotein A-I belts in HDL” (Journal of Lipid Research, 2025)
